# Strand notation (5' to 3'): a small letter for the sugar, then the base; units joined by * are phosphorothioate-linked, units joined directly phosphodiester-linked; [ ] holds rarer units or linkages, { } end groups; capitals alone tell only the bases. r = 2'-OH (RNA); f = 2'-fluoro
# Legend:
# PDGF-AA (rat) = PDGF-AA (rat) (Rattus norvegicus, UniProt P28576); experiment: Dot blot binding assay, PDGF-AA rat; settings: in the presence of 0.1 mg/mL tRNA
# Description: (§1) Dot blot binding assays were performed throughout the selection to monitor the protein binding affinity of the pool. Trace ^32P-labeled RNA was combined with PDGF-AA and incubated at room temperature for 30 min in 1×SHMCK plus 0.1 mg/ml tRNA for a final volume of 20 μl. The reaction was added to a dot blot apparatus (Schleicher and Schuell Minifold-1 Dot Blot, Acrylic), assembled (from top to bottom) with nitrocellulose, nylon, and gel blot membranes. RNA that is bound to protein is captured on the nitrocellulose filter, whereas the non-protein bound RNA is captured on the nylon filter. When a significant positive ratio of binding of RNA in the presence of PDGF-AA versus in the absence of PDGF-AA was seen, the pool was cloned using the TOPO TA cloning kit (Invitrogen, Carlsbad. CA) according to the manufacturer's instructions. The Round 10 pool template was cloned, and 17 sequences were obtained. Only five different sequences were seen, with two major families and one unique sequence (not of the two families). […] Clones with high affinity to PDGF-AA were prepped and screened for functionality in cell-based assays.
# [1] = target: T1, PDGF-AA (human short form) (Homo sapiens, UniProt P04085); experiment: Dot blot binding assay, PDGF-AA human short form; settings: in the presence of 0.1 mg/mL tRNA
# T1 construct: purchased Roche Biomedical
# Description: as §1
# PDGF-AA = target: T2, PDGF-AA (Homo sapiens, UniProt P04085); experiment: 3T3 proliferation assay (PDGF-AA induced); type: cell-based; settings: aptamer 0-1 uM, PDGF-AA 50 ng/ml
# T2 construct: purchased R&D Systems
# Description: The assay was set up as previously described, using a titration of PDGF-AA aptamer (0-1 uM) against a constant concentration (50 ng/ml) of PDGF-AA protein (R&D Systems).
Molecule,Kd (PDGF-AA (rat)) [nM],Kd [1] [nM],inhibition of PDGF-AA induced 3T3 cell proliferation (PDGF-AA),PDGF-AA (rat) Kd (nM) (PDGF-AA (rat)),PDGF-AA (human short form) Kd (nM) [1]
"ARX33P1.E5: PDGF-AA (short form) aptamer, 2′-fluoro pyrimidines (SEQ ID NO: 79) (nucleic acid) rGrGrGrArArArArGfCrGrArAfUfCrAfUrAfCrAfCrArArGrAfCfCrGrGrGrArAfCfUfCrGrGrAfUfUfCfUfUfCrAfCrAfUrGfUrGrGrAfUrGfUrGrAfUfCrArGfUrAfUrGfCfUfCfCrGfCfCrArGrArGrAfCfCrArAfCfCrGrArGrArA",57.4,117,"do inhibit PDGF-AA induced 3T3 cell proliferation, but are not very potent",–,–
"ARX33P1.D1: PDGF-AA selection clone, 2′-fluoro pyrimidines (SEQ ID NO: 77) (nucleic acid, aptamer) rGrGrGrArArArArGfCrGrArAfUfCrAfUrAfCrAfCrArArGrAfUfCrGfCfCrArGrGrArGfCrArArArGfUfCrAfCrGrGrArGrGrArGfUrGrGrGrGrGfUrAfCrGrArAfUrGfCfUfCfCrGfCfCrArGrArGrAfCfCrArAfCfCrGrArGrArA",–,–,–,N.B.,N.B.
"ARX33P1.E10: PDGF-AA (short form) aptamer, 2′-fluoro pyrimidines (SEQ ID NO: 80) (nucleic acid) rGrGrGrArArArArGfCrGrArAfUfCrAfUrAfCrAfCrArArGrAfCfCrGrGrArArAfCfUfCrGrGrAfUfUfCfUfUfCrGfCrAfUrGfUrGrGrAfUrGfCrGrAfUfCrArGfUrAfUrGfCfUfCfCrGfCfCrArGrArGrAfCfCrArAfCfCrGrArGrArA",47.1,133,"do inhibit PDGF-AA induced 3T3 cell proliferation, but are not very potent",–,–
"ARX33P1.E11: PDGF-AA selection clone, 2′-fluoro pyrimidines (SEQ ID NO: 81) (nucleic acid, aptamer) rGrGrGrArArArArGfCrGrArAfUfCrAfUrAfCrAfCrArArGrArGrArGfUrGrGrArGrGrArGrGfUrAfUrGfUrAfUrGrGfUfUfUrGfUrGfCrGfUfCfUrGrGfUrGfCrGrGfUrGfCfUfCfCrGfCfCrArGrArGrAfCfCrArAfCfCrGrArGrArA",–,–,–,N.B.,N.B.
"ARX33P1.D2: PDGF-AA (short form) aptamer, 2′-fluoro pyrimidines (SEQ ID NO: 78) (nucleic acid) rGrGrGrArArArArGfCrGrArAfUfCrAfUrAfCrAfCrArArGrAfCfCrGrGrGrArAfCfUfCrGrGrAfUfUfCfUfUfCrGfCrAfUrGfUrGrGrAfUrGfCrGrAfUfCrArGfUrAfUrGfCfUfCfCrGfCfCrArGrArGrAfCfCrArAfCfCrGrArGrArA",51.7,104,"do inhibit PDGF-AA induced 3T3 cell proliferation, but are not very potent",–,–

# — patent US20090053138A1, “Stabilized Aptamers to Platelet Derived Growth Factor and their Use as Oncology Therapeutics” (priority 2002, published 2009)
